We go through nine molecules from patent publication US20200157212A1 (Pfizer, published 2020).

Positions count from the first letter of the chain named.

B1: 93H2 (antibody, human IgG1, kappa, V domains shown)
VH: EVQLVQSGAEVKKPGASVKVSCKASGYTFTGYYMHWVRQAPGQGLEWMGWINPNSGATNFPQKFQGRVTMTRDTSITTAYMDLSRLRSDDTAVYYCARESGDDAFDIWGQGTMVTVSS
VL: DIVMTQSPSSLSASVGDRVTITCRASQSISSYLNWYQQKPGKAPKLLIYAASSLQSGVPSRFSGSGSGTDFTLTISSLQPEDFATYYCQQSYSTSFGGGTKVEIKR
notes: also called parental 93H2; 93H2 mAb
B2: Abcs55 (antibody, human IgG1, kappa, V domains shown)
VH: B1 VH with N54K, S55D, A57D, N59E
VL: DIVMTQSPSSLSASVGDRVTITCRASQSISSYLNWYQQKPGKAPKLLIYAASSLQYGVPSRFSGSGSGTDFTLTISSLQPEDFATYYCQQSYSTSFGGGTKVEIKR
notes: chain-shuffled IgG
B3: CTIR2-14 (antibody, human IgG1, kappa, V domains shown)
VH: B1 VH with T30R, Y33A, N52D, N54R, S55T, A57L, N59K
VL: B2 VL with S28K, Y92L, S93E, T94L, S95G
notes: CDR-shuffled IgG
B4: CTIR2-16 (antibody, human IgG1, kappa, V domains shown)
VH: B1 VH with T30R, Y33A, N52D, N54R, S55T, A57L, N59K
VL: B2 VL with S28K, Y92V, S93G, T94L, S95F
notes: CDR-shuffled IgG
B5: Abcs25 (antibody, human IgG1, kappa, V domains shown)
VH: B1 VH with N54K, S55D, A57D, N59E
VL: B2 VL with Y56S, Y92V, S93G, T94L
notes: chain-shuffled IgG
B6: Abcs35 (antibody, human IgG1, kappa)
heavy: EVQLVQSGAEVKKPGASVKVSCKASGYTFTGYYMHWVRQAPGQGLEWMGWINPKNGDTEFPQKFQGRVTMTRDTSITTAYMDLSRLRSDDTAVYYCARESGDDAFDIWGQGTMVTVSSASTKGPSVFPLAPSSKSTSGGTAALGCLVKDYFPEPVTVSWNSGALTSGVHTFPAVLQSSGLYSLSSVVTVPSSSLGTQTYICNVNHKPSNTKVDKKVEPKSCDKTHTCPPCPAPEAAGAPSVFLFPPKPKDTLMISRTPEVTCVVVDVSHEDPEVKFNWYVDGVEVHNAKTKPREEQYNSTYRVVSVLTVLHQDWLNGKEYKCKVSNKALPAPIEKTISKAKGQPREPQVYTLPPSREEMTKNQVSLTCLVKGFYPSDIAVEWESNGQPENNYKTTPPVLDSDGSFFLYSKLTVDKSRWQQGNVFSCSVMHEALHNHYTQKSLSLSPGK
light: DIVMTQSPSSLSASVGDRVTITCRASQSISSYLNWYQQKPGKAPKLLIYAASSLQSGVPSRFSGSGSGTDFTLTISSLQPEDFATYYCQQSVGLFFGGGTKVEIKRTVAAPSVFIFPPSDEQLKSGTASVVCLLNNFYPREAKVQWKVDNALQSGNSQESVTEQDSKDSTYSLSSTLTLSKADYEKHKVYACEVTHQGLSSPVTKSFNRGEC
notes: fully human IgG1; VH of Ab96 with VL of Ab123
B7: Abcs40 (antibody, human IgG1, kappa, V domains shown)
VH: B1 VH with N54K, S55D, A57D, N59E
VL: B2 VL with Y56S, Y92V, S93G, T94L, S95F
notes: chain-shuffled IgG
B8: Abcs20 (antibody, human IgG1, kappa, V domains shown)
VH: B1 VH with N54K, S55N, A57D, N59E
VL: B2 VL with Y56S, Y92V, S93G, T94L
notes: chain-shuffled IgG
B9: CTIR2-15 (antibody, human IgG1, kappa, V domains shown)
VH: B1 VH with T30R, Y33A, N52D, N54R, S55T, A57L, N59K
VL: B2 VL with S28K, Y92V, S93G, T94L
notes: CDR-shuffled IgG

The experiment addresses T1, Rat ROBO2 on cells (rat, UniProt Q7TPD3 22-1469 (mouse entry)).
T1 chain: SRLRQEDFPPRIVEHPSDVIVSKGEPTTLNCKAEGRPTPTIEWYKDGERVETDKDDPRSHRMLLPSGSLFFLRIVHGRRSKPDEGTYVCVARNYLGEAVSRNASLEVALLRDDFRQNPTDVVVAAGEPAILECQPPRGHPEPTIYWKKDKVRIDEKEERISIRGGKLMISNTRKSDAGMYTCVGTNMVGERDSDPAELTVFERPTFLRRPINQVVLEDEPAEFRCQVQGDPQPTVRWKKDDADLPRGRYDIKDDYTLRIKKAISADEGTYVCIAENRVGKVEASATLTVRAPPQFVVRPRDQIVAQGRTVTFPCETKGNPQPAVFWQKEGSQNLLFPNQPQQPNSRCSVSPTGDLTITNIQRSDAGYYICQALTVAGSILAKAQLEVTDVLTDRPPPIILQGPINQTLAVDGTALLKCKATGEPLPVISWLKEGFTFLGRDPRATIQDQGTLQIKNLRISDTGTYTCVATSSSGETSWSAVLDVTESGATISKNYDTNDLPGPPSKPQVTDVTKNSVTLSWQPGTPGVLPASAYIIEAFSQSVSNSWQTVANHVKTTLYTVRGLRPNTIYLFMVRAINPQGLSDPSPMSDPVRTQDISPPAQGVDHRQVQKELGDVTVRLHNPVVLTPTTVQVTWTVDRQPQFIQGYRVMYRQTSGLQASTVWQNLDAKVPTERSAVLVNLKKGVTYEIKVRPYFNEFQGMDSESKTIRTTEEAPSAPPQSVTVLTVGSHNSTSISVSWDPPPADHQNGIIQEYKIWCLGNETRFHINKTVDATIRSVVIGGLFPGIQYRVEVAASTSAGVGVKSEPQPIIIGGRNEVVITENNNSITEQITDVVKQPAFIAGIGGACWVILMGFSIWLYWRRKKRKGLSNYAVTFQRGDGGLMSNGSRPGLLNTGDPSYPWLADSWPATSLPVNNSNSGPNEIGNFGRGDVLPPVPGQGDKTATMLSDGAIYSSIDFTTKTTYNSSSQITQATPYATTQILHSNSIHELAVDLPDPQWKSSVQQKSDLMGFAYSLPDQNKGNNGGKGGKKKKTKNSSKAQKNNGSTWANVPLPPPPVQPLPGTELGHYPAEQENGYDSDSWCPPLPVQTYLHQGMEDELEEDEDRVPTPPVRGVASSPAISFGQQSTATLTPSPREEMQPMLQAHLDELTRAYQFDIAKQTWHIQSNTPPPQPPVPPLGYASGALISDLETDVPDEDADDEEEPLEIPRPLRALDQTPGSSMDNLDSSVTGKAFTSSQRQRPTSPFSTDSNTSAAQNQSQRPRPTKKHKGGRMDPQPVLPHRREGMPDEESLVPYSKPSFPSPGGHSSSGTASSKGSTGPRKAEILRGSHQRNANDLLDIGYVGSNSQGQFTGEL
Kind of experiment: cell-based or functional assay.
Turning to B1, the “IC50 (nM), SVZa assay” value came to 1.69 nM.
In the case of B2 it was 0.98 nM; in that of B3, 0.11 nM; in that of B4, 0.41 nM.
In the case of B5, the “IC50 (nM), SVZa assay” value was 0.31 nM.
To B6 belongs 0.039 nM; to B7, 0.11 nM.
As for B8, the “IC50 (nM), SVZa assay” value is 0.47 nM.
To B9 belongs 0.02 nM.
